Test results: patent US7790673 (NEW YORK UNIVERSITY, dated 2010)

Experiments:
Aβ1-40 synthetic peptide = biological target: T1, Aβ1-40 synthetic peptide (UniProt P05067 672-711); test: ELISA, Aβ1-40-coated wells, 0-37.5 nM cystatin C
T1 construct: domain: Aβ1-40; Coated on microtiter wells, freshly dissolved; also called Aβ40
Protocol: (§1) Two different batches of each peptide were used in the experiments. Wild type and variant cystatin C, purified from conditioned media as described above, were compared to urinary cystatin C (Calbiochem Biosciences). Polystyrene microtiter plates (Immunolon 2; Dynex Technology) were coated for 16 hours at 4° C. with freshly dissolved Aβ peptides (400 ng in 100 µl of NaHCO_3 $pH$ 9.6 per well). After blocking with 200 µl Superblock (Pierce), increasing concentrations of either wild type, variant or urinary cystatin C (0-37.5 nM) in 100 µl TBS-T (20 mM Tris-HCl, 150 mM NaCl pH 7.4, containing 0.1% Tween-20) were added to the Aβ-coated wells and incubated for 3 hours at 37° C. Bound cystatin C was detected with 100 µl polyclonal anti-cystatin C antibody (1:600) followed by 100 µl horseradish peroxidase-conjugated F(ab')2 anti-rabbit IgG (1:4000, Amersham) and developed using 100 µl 3,3',5,5'-tetramethyl-benzidine as substrate; Absorbency was read at 450 nm after stopping the reaction with 100 µl 2.5N sulfuric acid. Non-linear regression analysis, estimation of dissociation constants and comparison of protein binding data were assessed for statistical significance with GraphPad Prism software (GraphPad, San Diego, Calif., USA). P values were calculated by one-way ANOVA of three independent repeated measures of duplicate samples. […]

[1] = biological target: T2, full-length βAPP (βAPP751 cDNA, in HEK293 cells) (UniProt P05067-8 18-751, limits assumed); test: immunoprecipitation of HEK293 cell lysate proteins with anti-cystatin C antibody, immunoblot with 22C11
T2 construct: whole, on cells; Tested by co-immunoprecipitation from cell lysates, not on intact cells; also called β amyloid precursor protein; cell associated full-length βAPP
Protocol: Media was replaced 16 hours after transient transfection, harvested 24 hours later, and spun at 4,500×g for 10 minutes at 4° C. Cells were harvested in RIPA buffer (1% NP-40, 0.5% cholic acid, 0.1% SDS; 150 mM NaCl, 10 mM Tris-HCl, pH 8.0) with protease inhibitors (7.5 μg/ml Aprotinin; 5 μg/ml leupeptin; 2 mM PMSF) and centrifuged for 5 minutes at 10,000 rpm at 4° C. Cellular and secreted proteins were immunoprecipitated with either polyclonal antibodies and Protein A Sepharose (Pharmacia Biotech) for 4 hours at 4° C. or with monoclonal antibodies overnight at 4° C. and with GammaBind Plus Sepharose beads (Pharmacia Biotech) for 2 hours at 4° C.
The interaction of cystatin C with βAPP was examined in HEK293 cells stably expressing either wild type or variant cystatin C genes, and transiently transfected with either wild type βAPP or vector cDNAs. […] The data indicates binding between cystatin C and cell associated full-length as well as sβAPP.

Aβ1-42 synthetic peptide = biological target: T3, Aβ1-42 synthetic peptide (UniProt P05067 672-713); test: ELISA, Aβ1-42-coated wells, 0-37.5 nM cystatin C
T3 construct: domain: Aβ1-42; Coated on microtiter wells, freshly dissolved; Also used in the fibril and oligomerization assays; also called Aβ42
Protocol: as §1

Measured: binding result

B1: variant human cystatin C (L68Q, HCHWA-I variant) (other, UniProt P01034 27-146, looked up)
chain: SSPGKPPRLVGGPMDASVEEEGVRRALDFAVGEYNKASNDMYHSRALQVVRARKQIVAGVNYFLDVEQGRTTCTKTQPNLDNCPFHDQPHLKRKAFCSFQIYAVPWQGTMTLSKSTCQDA
notes: mature; Position 68 counts on the mature protein, not on the precursor with signal peptide; also called cystatin C-V; CysC-V
binds: all assays above
